Data on one molecule can be found in publication doi:10.1101/684100 (bioRxiv, 2019).

This test addresses EDB (+)-fibronectin in murine tumor sections (Mus musculus, UniProt P11276). The test can be described thus: immunostaining of cells or tissue.

EDB (+)-fibronectin in murine tumor sections, sequence (P11276 33-2477): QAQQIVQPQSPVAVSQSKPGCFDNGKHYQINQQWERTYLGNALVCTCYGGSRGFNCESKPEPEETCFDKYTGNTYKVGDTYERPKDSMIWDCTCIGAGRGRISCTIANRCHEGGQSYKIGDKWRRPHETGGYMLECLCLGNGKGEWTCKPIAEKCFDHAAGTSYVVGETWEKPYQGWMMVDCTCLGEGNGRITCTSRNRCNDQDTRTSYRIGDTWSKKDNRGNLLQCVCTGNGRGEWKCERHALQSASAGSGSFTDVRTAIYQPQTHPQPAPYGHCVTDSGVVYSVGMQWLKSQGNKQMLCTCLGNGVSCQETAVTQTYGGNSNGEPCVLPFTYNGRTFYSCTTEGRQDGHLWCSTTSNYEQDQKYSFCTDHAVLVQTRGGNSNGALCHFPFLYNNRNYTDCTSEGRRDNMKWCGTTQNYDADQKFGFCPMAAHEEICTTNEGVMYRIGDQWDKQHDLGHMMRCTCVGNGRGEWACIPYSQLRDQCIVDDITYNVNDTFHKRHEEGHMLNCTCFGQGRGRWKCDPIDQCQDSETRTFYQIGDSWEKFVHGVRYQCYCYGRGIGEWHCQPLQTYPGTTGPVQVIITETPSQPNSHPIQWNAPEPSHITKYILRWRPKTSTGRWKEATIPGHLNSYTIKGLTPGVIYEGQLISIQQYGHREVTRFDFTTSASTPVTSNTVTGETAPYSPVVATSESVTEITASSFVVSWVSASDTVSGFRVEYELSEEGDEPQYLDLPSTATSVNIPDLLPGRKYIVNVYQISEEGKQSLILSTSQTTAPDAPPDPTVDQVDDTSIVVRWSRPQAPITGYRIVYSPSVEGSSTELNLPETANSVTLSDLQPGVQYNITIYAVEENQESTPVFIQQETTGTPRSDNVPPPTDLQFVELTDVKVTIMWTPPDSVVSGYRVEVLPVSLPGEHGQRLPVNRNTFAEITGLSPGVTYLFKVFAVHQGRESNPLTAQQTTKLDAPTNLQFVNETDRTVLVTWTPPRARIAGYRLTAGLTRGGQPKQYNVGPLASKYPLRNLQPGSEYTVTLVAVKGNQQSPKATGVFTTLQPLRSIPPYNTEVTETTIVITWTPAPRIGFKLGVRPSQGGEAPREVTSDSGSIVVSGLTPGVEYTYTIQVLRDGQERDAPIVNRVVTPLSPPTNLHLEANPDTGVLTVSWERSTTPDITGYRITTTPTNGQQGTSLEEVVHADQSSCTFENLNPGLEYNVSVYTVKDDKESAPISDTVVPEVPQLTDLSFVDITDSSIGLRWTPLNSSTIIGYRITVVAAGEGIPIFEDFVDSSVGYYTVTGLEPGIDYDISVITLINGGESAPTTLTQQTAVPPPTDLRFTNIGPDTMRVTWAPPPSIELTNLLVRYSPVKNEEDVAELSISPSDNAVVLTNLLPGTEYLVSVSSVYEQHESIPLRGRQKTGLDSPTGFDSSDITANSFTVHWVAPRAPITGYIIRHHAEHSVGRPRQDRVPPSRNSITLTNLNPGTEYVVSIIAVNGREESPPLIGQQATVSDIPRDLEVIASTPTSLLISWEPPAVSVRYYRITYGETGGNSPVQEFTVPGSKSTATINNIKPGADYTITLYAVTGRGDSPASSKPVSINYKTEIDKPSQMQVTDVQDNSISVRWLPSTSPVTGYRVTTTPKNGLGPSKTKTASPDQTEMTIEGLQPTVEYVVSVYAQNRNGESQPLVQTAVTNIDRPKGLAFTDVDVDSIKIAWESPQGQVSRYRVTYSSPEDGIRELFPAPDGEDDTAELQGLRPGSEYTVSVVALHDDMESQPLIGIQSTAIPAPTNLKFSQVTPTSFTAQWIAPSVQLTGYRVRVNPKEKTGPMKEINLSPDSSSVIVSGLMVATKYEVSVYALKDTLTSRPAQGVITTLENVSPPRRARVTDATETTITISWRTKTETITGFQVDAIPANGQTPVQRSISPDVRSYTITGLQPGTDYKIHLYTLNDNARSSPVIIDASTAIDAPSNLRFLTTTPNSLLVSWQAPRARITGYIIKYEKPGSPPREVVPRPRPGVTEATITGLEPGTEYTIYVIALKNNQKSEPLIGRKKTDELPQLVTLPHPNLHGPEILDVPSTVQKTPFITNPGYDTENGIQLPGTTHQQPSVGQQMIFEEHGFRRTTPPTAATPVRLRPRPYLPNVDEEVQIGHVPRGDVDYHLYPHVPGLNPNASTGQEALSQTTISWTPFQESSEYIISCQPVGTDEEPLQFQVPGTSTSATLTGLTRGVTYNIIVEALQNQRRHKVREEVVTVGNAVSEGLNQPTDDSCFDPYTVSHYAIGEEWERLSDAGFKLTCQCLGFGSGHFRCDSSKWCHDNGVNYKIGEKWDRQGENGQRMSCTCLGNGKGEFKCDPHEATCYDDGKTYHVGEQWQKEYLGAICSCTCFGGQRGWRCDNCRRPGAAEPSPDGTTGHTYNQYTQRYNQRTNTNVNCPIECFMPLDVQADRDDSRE

B1: FITC-labeled L19 IgG1 (antibody, V domains shown)
VH: EVQLLESGGGLVQPGGSLRLSCAASGFTFSSFSMSWVRQAPGKGLEWVSSISGSSGTTYYADSVKGRFTISRDNSKNTLYLQMNSLRAEDTAVYYCAKPFPYFDYWGQGTLVTVSS
VL: EIVLTQSPGTLSLSPGERATLSCRASQSVSSSFLAWYQQKPGQAPRLLIYYASSRATGIPDRFSGSGSGTDFTLTISRLEPEDFAVYYCQQTGRIPPTFGQGTKVEIK
Turning to B1, the binding result was “binds”.
